Fewer inactive variants are shown than the library holds.
Assays:
biotinyl-Met-oxazolone = experiment: self-aminoacylation, catalytic enhancement (BMO) (fold over background); higher = more active; k-Seq, kA / k0A0; sequences stand for … in GGGAAUGGAUCCACAUCUACGAAUUC…UUCACUGCAGACUUGACGAAGCUG
Method in brief: (§1)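 Mutagenized RNA pools (0.43 μM; 21-nt variable region) were treated with 2–1250 μM of each biotinyl-aminoacyl-oxazolone. Conditions were 50 μL HEPES/NaCl/KCl/MgCl2/CaCl2 buffer, 5% acetonitrile, pH 6.9–7.0, room temperature, 90 minutes. Catalytic enhancement, the median kA relative to the uncatalyzed rate, was derived from streptavidin capture, qPCR and Illumina sequencing.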

biotinyl-Leu-oxazolone = experiment: self-aminoacylation, catalytic enhancement (BLO) (fold over background); higher = more active; k-Seq, kA / k0A0; sequences stand for … in GGGAAUGGAUCCACAUCUACGAAUUC…UUCACUGCAGACUUGACGAAGCUG
Method in brief: as §1

biotinyl-Phe-oxazolone = experiment: self-aminoacylation, catalytic enhancement (BFO) (fold over background); higher = more active; k-Seq, kA / k0A0; sequences stand for … in GGGAAUGGAUCCACAUCUACGAAUUC…UUCACUGCAGACUUGACGAAGCUG
Method in brief: as §1

biotinyl-Trp-oxazolone = experiment: self-aminoacylation, catalytic enhancement (BWO) (fold over background); higher = more active; k-Seq, kA / k0A0; sequences stand for … in GGGAAUGGAUCCACAUCUACGAAUUC…UUCACUGCAGACUUGACGAAGCUG
Method in brief: as §1

biotinyl-Ile-oxazolone = experiment: self-aminoacylation, catalytic enhancement (BIO) (fold over background); higher = more active; k-Seq, kA / k0A0; sequences stand for … in GGGAAUGGAUCCACAUCUACGAAUUC…UUCACUGCAGACUUGACGAAGCUG
Method in brief: as §1

biotinyl-Val-oxazolone = experiment: self-aminoacylation, catalytic enhancement (BVO) (fold over background); higher = more active; k-Seq, kA / k0A0; sequences stand for … in GGGAAUGGAUCCACAUCUACGAAUUC…UUCACUGCAGACUUGACGAAGCUG
Method in brief: as §1

| Sequence | self-aminoacylation (biotinyl-Met-oxazolone) | self-aminoacylation (biotinyl-Leu-oxazolone) | self-aminoacylation (biotinyl-Phe-oxazolone) | self-aminoacylation (biotinyl-Trp-oxazolone) | self-aminoacylation (biotinyl-Ile-oxazolone) | self-aminoacylation (biotinyl-Val-oxazolone) |
| --- | --- | --- | --- | --- | --- | --- |
| AAGUUAGCUUAUAGUCGCAAG [Fam3.1 aminoacylation ribozyme variant] | 1.43 | 1.48 | 2.88 | 1.9 | 1.8 | 1.56 |
| AAGUUAUCUAAUAGUCGCAAG [Fam3.1 aminoacylation ribozyme variant] | 1.32 | 1.53 | 2.66 | 1.36 | 1.51 | 1.18 |
| AAGUUCGCUAAUACUCGCAAG [Fam3.1 aminoacylation ribozyme variant] | 1.47 | 1.2 | 0.849 | 0.7 | 1.53 | 1.12 |
| AAGUUCGCUAAUAGCCGCAAG [Fam3.1 aminoacylation ribozyme variant] | 1.82 | 1.38 | 1.97 | 1.75 | 1.35 | 1.12 |
| AAGUUCGCUAAUAGUCGCUAG [Fam3.1 aminoacylation ribozyme variant] | 1.53 | 1.47 | 1.34 | 1.45 | 1.48 | 1.4 |
| AAGUUCGCUAAUCGUCGCAAG [Fam3.1 aminoacylation ribozyme variant] | 1.25 | 1.05 | 6.17 | 2.55 | 1.6 | 1.48 |
| AAGUUCGCUAAUUGUCGCAAG [Fam3.1 aminoacylation ribozyme variant] | 1.3 | 2.06 | 3.26 | 1.51 | 1.68 | 1.7 |
| AAGUUGGCUAAUAGCCGCAAG [Fam3.1 aminoacylation ribozyme variant] | 2.22 | 1.95 | 2.16 | 2.85 | 1.89 | 1.91 |
| AAGUUGGCUAAUAGUCGCAGG [Fam3.1 aminoacylation ribozyme variant] | 1.6 | 1.97 | 3.81 | 1.23 | 1.59 | 1.34 |
| AAGUUGGCUCAUAGUCGCAAG [Fam3.1 aminoacylation ribozyme variant] | 1.71 | 1.99 | 2.43 | 2.44 | 1.8 | 1.88 |
| AAGUUUACAAAUAGUCGCAAG [Fam3.1 aminoacylation ribozyme variant] | 1.51 | 1.8 | 2.51 | 1.98 | 1.92 | 1.66 |
| AAGUUUACUAAUAGUCGCAAG [Fam3.1 aminoacylation ribozyme variant] | 1.23 | 1.3 | 2.7 | 1.5 | 1.4 | 1.32 |
| AAGUUUACUAAUAGUCGCUAG [Fam3.1 aminoacylation ribozyme variant] | 1.29 | 1.26 | 2.43 | 1.69 | 1.39 | 1.23 |
| AAGUUUACUACUAGUCGCAAG [Fam3.1 aminoacylation ribozyme variant] | 1.46 | 1.27 | 2.04 | 1.76 | 1.57 | 1.6 |
| AAGUUUACUCAUAGUCGCAAG [Fam3.1 aminoacylation ribozyme variant] | 1.58 | 1.8 | 2.83 | 1.88 | 1.65 | 1.43 |
| AAGUUUACUGAUAGUCGCAAG [Fam3.1 aminoacylation ribozyme variant] | 1.02 | 1.38 | 2.67 | 1.55 | 1.62 | 1.32 |
| AAGUUUACUUAUAGUCGCAAG [Fam3.1 aminoacylation ribozyme variant] | 1.92 | 1.39 | 2.5 | 1.74 | 1.86 | 1.58 |
| AAGUUUCCUAAAAGUCGCAAG [Fam3.1 aminoacylation ribozyme variant] | 1.64 | 2.06 | 2.23 | 1.71 | 1.7 | 1.57 |
| AAGUUUCCUAAUAGUCACAAG [Fam3.1 aminoacylation ribozyme variant] | 1.77 | 1.64 | 2.29 | 1.23 | 1.8 | 1.61 |
| AAGUUUCCUAAUAGUCCCAAG [Fam3.1 aminoacylation ribozyme variant] | 1.5 | 1 | 2.59 | 1.48 | 1.57 | 1.73 |
| AAGUUUGAUAAUAGUCGUAAG [Fam3.1 aminoacylation ribozyme variant] | 0.625 | 0.65 | 1.38 | 0.783 | 0.716 | 0.603 |
| AAGUUUGAUAAUAGUCUCAAG [Fam3.1 aminoacylation ribozyme variant] | 0.731 | 0.638 | 1.46 | 0.754 | 0.737 | 0.703 |
| AAGUUUGAUACUAGUCGCAAG [Fam3.1 aminoacylation ribozyme variant] | 0.811 | 1.37 | 1.36 | 0.887 | 1.5 | 1.25 |
| AAGUUUGAUAGUAGUCGCAAG [Fam3.1 aminoacylation ribozyme variant] | 1.17 | 0.977 | 0.93 | 1.21 | 0.973 | 0.979 |
| AAGUUUGAUCAUAGUCGCAAG [Fam3.1 aminoacylation ribozyme variant] | 1.55 | 1.62 | 2.45 | 1.2 | 1.69 | 1.76 |
| AAGUUUGAUGAUAGUCGCAAG [Fam3.1 aminoacylation ribozyme variant] | 1.49 | 1.63 | 2.4 | 1.4 | 1.78 | 1.49 |

| Sequence | self-aminoacylation (biotinyl-Met-oxazolone) | self-aminoacylation (biotinyl-Leu-oxazolone) | self-aminoacylation (biotinyl-Phe-oxazolone) | self-aminoacylation (biotinyl-Trp-oxazolone) | self-aminoacylation (biotinyl-Ile-oxazolone) | self-aminoacylation (biotinyl-Val-oxazolone) |
| --- | --- | --- | --- | --- | --- | --- |
| AAGUUUGCAAAGAGUCGCAAG [Fam3.1 aminoacylation ribozyme variant] | 0.929 | 0.949 | 1.41 | 1.54 | 0.841 | 0.832 |
| AAGUUUGCAAAUAGUCGCAUG [Fam3.1 aminoacylation ribozyme variant] | 1.07 | 0.874 | 0.739 | 1.46 | 1.14 | 0.978 |
| AAGUUUGCAAAUAUUCGCAAG [Fam3.1 aminoacylation ribozyme variant] | 1.25 | 1.09 | 1.3 | 1.35 | 0.999 | 1.03 |
| AAGUUUGCCAAUAGUCGGAAG [Fam3.1 aminoacylation ribozyme variant] | 0.781 | 0.941 | 1.28 | 0.79 | 1.14 | 0.968 |
| AAGUUUGCGAAGAGUCGCAAG [Fam3.1 aminoacylation ribozyme variant] | 0.955 | 1.04 | 1.49 | 1 | 1.36 | 1.21 |
| AAGUUUGCGAAUAGUCGCAAA [Fam3.1 aminoacylation ribozyme variant] | 2.22 | 1.38 | 1.97 | 1.31 | 2.03 | 1.57 |
| AAGUUUGCGAAUCGUCGCAAG [Fam3.1 aminoacylation ribozyme variant] | 1.19 | 0.942 | 1.79 | 1 | 1.31 | 1.1 |
| AAGUUUGCGACUAGUCGCAAG [Fam3.1 aminoacylation ribozyme variant] | 1.73 | 1.34 | 2.33 | 1.67 | 1.78 | 1.34 |
| AAGUUUGCGUAUAGUCGCAAG [Fam3.1 aminoacylation ribozyme variant] | 1.21 | 0.753 | 1.22 | 1.23 | 0.888 | 0.996 |
| AAGUUUGCUAAAAAUCGCAAG [Fam3.1 aminoacylation ribozyme variant] | 0.925 | 0.891 | 0.949 | 0.986 | 1.09 | 0.721 |
| AAGUUUGCUAAAAGCCGCAAG [Fam3.1 aminoacylation ribozyme variant] | 0.604 | 0.63 | 1.42 | 1.08 | 0.613 | 0.689 |
| AAGUUUGCUAAAAGUCACAAG [Fam3.1 aminoacylation ribozyme variant] | 0.971 | 0.919 | 3.25 | 2 | 1.35 | 1.07 |
| AAGUUUGCUAAAAGUCGCAAU [Fam3.1 aminoacylation ribozyme variant] | 1.37 | 0.929 | 1.15 | 1.69 | 1.24 | 1.17 |
| AAGUUUGCUAAAAGUCGCGAG [Fam3.1 aminoacylation ribozyme variant] | 2.21 | 2.1 | 2.4 | 2.34 | 1.7 | 1.68 |
| AAGUUUGCUAAAAGUUGCAAG [Fam3.1 aminoacylation ribozyme variant] | 1.07 | 0.968 | 1.18 | 0.711 | 0.983 | 0.781 |
| AAGUUUGCUAACAGUCGCAAU [Fam3.1 aminoacylation ribozyme variant] | 1.22 | 0.968 | 0.994 | 1.58 | 1.13 | 0.959 |
| AAGUUUGCUAACAGUCGCACG [Fam3.1 aminoacylation ribozyme variant] | 1.19 | 0.745 | 1.65 | 0.973 | 0.921 | 1.18 |
| AAGUUUGCUAACAGUCUCAAG [Fam3.1 aminoacylation ribozyme variant] | 0.713 | 0.733 | 4.44 | 1.64 | 0.979 | 0.694 |
| AAGUUUGCUAAGAAUCGCAAG [Fam3.1 aminoacylation ribozyme variant] | 0.503 | 0.521 | 0.824 | 0.588 | 0.583 | 0.58 |
| AAGUUUGCUAAUAAUCGCAAA [Fam3.1 aminoacylation ribozyme variant] | 1.14 | 1.09 | 0.86 | 1.02 | 1.2 | 1.14 |
| AAGUUUGCUAAUAAUUGCAAG [Fam3.1 aminoacylation ribozyme variant] | 0.862 | 0.877 | 1.1 | 0.832 | 0.961 | 0.857 |
| AAGUUUGCUAAUACUCGCAAA [Fam3.1 aminoacylation ribozyme variant] | 1.22 | 0.837 | 1.26 | 1.71 | 1.2 | 1.05 |
| AAGUUUGCUAAUACUCUCAAG [Fam3.1 aminoacylation ribozyme variant] | 0.512 | 0.63 | 0.931 | 0.527 | 0.693 | 0.721 |
| AAGUUUGCUAAUAGACACAAG [Fam3.1 aminoacylation ribozyme variant] | 0.665 | 0.654 | 1.23 | 0.797 | 0.828 | 0.916 |
| AAGUUUGCUAAUAGAGGCAAG [Fam3.1 aminoacylation ribozyme variant] | 0.692 | 0.554 | 0.955 | 0.788 | 0.762 | 0.733 |
